Data published in PMC314469, “Protein Interaction Networks by Proteome Peptide Scanning” (PLoS Biology, 2004).

Tests used:
[1] = target: T1, amphyphisin SH3 (AMPH_HUMAN), P49418; assay: SPOT array
T1 chain: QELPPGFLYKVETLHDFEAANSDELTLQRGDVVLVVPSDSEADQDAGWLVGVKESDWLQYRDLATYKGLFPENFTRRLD

[2] = target: endophilin SH3 (SH3G2_HUMAN), Q99962; assay: SPOT array

Binder	normalised SPOT signal, Boehringer light units (BLU); mean over the file's lines of this peptide [1]	normalised SPOT signal, Boehringer light units (BLU); mean over the file's lines of this peptide [2]
ETISPLRPQRPKSQ [Q14185 1731-1744]	4090	220
ESRDITRPSRPASY [O60298 756-769]	539	192
ETSMLKRPVLLHLH [Q9UHE8 34-47]	79.9	440
ETGALRRPQLLPLL [O60896 2-15]	39.4	127
EQYIPSRPLKTQEL [Q9Y259 145-158]	32.2	159
ESPLPRRPPRAARS [P81408 388-402]	23200	8150
FAPEFRRPKNIHLR [Q9UPW7 1021-1034]	41.6	204
AGSSPGKPPRLVGG [P01034 24-38]	272	102
ETSGPERPPEKPRK [O75408 12-26]	38.5	926
ETLTFKRPEGMHRE [Q9NPF5 43-56]	29.5	0
EWIVFRRPVPISYH [P23470 266-279]	95.2	557
EREALKRPMGPVHY [Q9P0R4 128-141]	11.6	50.5
EREFLERPSRDHLY [Q12968 137-150]	334	108
AGSSPRRPQGGSDA [Q96IQ9 293-306]	20.7	51.2
EQVDLIRPWRRLLE [Q9NU22 852-865]	131	147
ETSMLKRPVLLHLQ [Q9Y6U5 44-57]	16.4	182
ESSRPVKPPKKDVP [O60885 322-336]	52.8	96.9
EVQPPVRPGKGGSV [Q9BXU7 105-118]	143	136
EVDGLSRPQRPRPR [Q9HC10 643-656]	135	281
EVEMLPRPPKVTKE [P11532 250-263]	103	63
ESSGPPRPSRGPAA [Q9UHD9 6-19]	2690	295

Binder	normalised SPOT signal, Boehringer light units (BLU); mean over the file's lines of this peptide [1]	normalised SPOT signal, Boehringer light units (BLU); mean over the file's lines of this peptide [2]
EVLELRRPMDSRLE [P78524 857-870]	43.8	34.9
ESQSPKRPPEDFET [Q16632 163-177]	42	49.5
EVITLERPLRSSSS [O15162 171-184]	660	102
ESGRPIKPPRKDLP [P25440 318-332]	8960	1950
EVPDPNRPQRLGLH [O60275 1047-1060]	198	228
ETNIPQRPSRPARR [Q9HBL3 239-252]	20700	1800
ERPPPFKPPPPPIK [P40200 535-549]	92.2	2690
EWASLLRPLRGREP [O94987 53-66]	308	170
EYHRPAKPPPPPTG [BAC04960 97-111]	43.8	86
ESRDITRPSRPADL [Q9Y6Z1 10-23]	192	134
AGSDPKRPEMPSKK [P23470 686-699]	23.2	66.5
ETMYLRRPEGIERQ [Q9H5V9 75-88]	20.5	128
EVMILRRPSLQRRA [Q9ULT8 713-726]	236	2210
FDGRPTKPPPNSYS [P17480 292-306]	66.2	351
EVITLERPLRSNSS [Q9NRY7 86-99]	384	121
EYALPQRPPQGPED [BAC04305 7-21]	38.5	36.6
FSDFLKRPIALLKM [Q9H3T9 40-53]	22	399
ESPPPKRPRIAYLS [P36508 395-408]	39.3	332
ERDFLKRPLESYVK [Q10472 159-172]	42.3	4.5
EVPTPKRPRGRPKG [P17096 49-62]	36	41.8
EVFFPPRPERVEHN [Q16530 104-117]	484	122
